Source: patent US20240182536A1 (MURAL ONCOLOGY, published 2024)
Where a chain is given by its changes, count along the chain named. Names may count otherwise.

T1: IL-18 receptors on HEK-Blue IL-18 reporter cells (UniProt Q13478 19-541; O95256 20-599, limits assumed)
T1 sequence (looked up) 1: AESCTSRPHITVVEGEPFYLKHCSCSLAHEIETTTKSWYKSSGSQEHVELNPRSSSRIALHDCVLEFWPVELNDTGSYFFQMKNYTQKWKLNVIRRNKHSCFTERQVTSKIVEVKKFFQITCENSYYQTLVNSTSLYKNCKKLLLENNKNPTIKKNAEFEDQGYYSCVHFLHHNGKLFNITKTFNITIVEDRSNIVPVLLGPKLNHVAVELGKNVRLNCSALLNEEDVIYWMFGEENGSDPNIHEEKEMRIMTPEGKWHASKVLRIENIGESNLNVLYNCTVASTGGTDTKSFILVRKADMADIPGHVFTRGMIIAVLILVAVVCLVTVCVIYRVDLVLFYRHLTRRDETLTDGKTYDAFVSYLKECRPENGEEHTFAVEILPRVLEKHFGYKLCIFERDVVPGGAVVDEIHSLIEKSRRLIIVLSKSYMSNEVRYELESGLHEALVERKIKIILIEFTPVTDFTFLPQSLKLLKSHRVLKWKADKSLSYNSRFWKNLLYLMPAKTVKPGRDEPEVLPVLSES
T1 sequence (looked up) 2: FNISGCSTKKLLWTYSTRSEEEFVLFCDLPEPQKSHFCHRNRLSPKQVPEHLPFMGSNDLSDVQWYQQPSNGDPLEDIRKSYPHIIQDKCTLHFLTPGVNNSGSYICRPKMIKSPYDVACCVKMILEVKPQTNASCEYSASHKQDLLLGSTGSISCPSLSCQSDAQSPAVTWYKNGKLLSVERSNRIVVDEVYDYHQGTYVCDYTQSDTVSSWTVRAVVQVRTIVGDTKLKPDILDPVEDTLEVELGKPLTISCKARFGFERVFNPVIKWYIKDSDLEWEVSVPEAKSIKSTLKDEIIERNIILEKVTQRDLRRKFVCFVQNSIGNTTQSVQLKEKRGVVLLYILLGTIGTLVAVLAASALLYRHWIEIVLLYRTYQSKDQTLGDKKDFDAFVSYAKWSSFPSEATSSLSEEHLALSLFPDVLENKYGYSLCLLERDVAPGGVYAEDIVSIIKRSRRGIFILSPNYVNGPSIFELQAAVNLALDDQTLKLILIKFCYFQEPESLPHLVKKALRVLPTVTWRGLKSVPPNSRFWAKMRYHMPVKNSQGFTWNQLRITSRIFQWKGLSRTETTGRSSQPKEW

T2: IL-18 binding protein (IL-18BP) (UniProt O95998 31-194)
T2 sequence (looked up): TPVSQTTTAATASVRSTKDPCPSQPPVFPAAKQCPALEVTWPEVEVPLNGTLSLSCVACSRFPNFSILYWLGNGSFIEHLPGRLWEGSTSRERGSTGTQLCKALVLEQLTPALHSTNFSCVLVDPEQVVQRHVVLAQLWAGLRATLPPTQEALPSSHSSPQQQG

B1: IL-18 variant G3P, E6H, D54A, S55P, Q56K, T63S, N91M (ligand)
chain: YFPKLHSKLSVIRNLNDQVLFIDQGNRPLFEDMTDSDMRDNAPRTIFIISMYKAPKPRGMAVSISVKSEKISTLSSENKIISFKEMNPPDMIKDTKSDIIFFQRSVPGHDNKMQFESSSYEGYFLASEKERDLFKLILKKEDELGDRSIMFTVQNED
B2: IL-18 variant G3T, E6Q, K53G, D54G, S55H, T63A, S65T, N91R, R104Q (ligand)
chain: B1 chain with P3T, H6Q, K53G, A54G, P55H, K56Q, S63A, S65T, M91R, R104Q
B3: IL-18 variant G3Q, E6N (ligand)
chain: B1 chain with P3Q, H6N, A54D, P55S, K56Q, S63T, M91N
B4: IL-18 variant G3P, E6G, D54T, S55W, N91E, R104K (ligand)
chain: B1 chain with H6G, A54T, P55W, K56Q, S63T, M91E, R104K
B5: IL-18 variant G3S, E6Q, K53S, D54Y, S55H, N91L, R104Q (ligand)
chain: B1 chain with P3S, H6Q, K53S, A54Y, P55H, K56Q, S63T, M91L, R104Q
B6: IL-18 variant G3P, E6K, K53M, D54W, S55N, T63S, N91I (ligand)
chain: B1 chain with H6K, K53M, A54W, P55N, K56Q, M91I
B7: IL-18 variant G3P, E6R, D54W, S55Q, T63S, N91T, R104H (ligand)
chain: B1 chain with H6R, A54W, P55Q, K56Q, M91T, R104H
B8: IL-18 variant G3Y, E6S, K53S, D54W, S55L, T63S, N91I (ligand)
chain: B1 chain with P3Y, H6S, K53S, A54W, P55L, K56Q, M91I
B9: IL-18 variant G3Y, E6S, K53S, D54W, S55L, N91I (ligand)
chain: B1 chain with P3Y, H6S, K53S, A54W, P55L, K56Q, S63T, M91I
B10: IL-18 variant G3R, L5W, E6H, D54Y, Q56H, N91R (ligand)
chain: B1 chain with P3R, L5W, A54Y, P55S, K56H, S63T, M91R
B11: IL-18 variant G3P, E6K, D54R, S55P, T63A, N91V (ligand)
chain: B1 chain with H6K, A54R, K56Q, S63A, M91V
B12: IL-18 variant G3P, E6V, K53A, D54W, S55P, T63S, N91L, R104K (ligand)
chain: B1 chain with H6V, K53A, A54W, K56Q, M91L, R104K
B13: IL-18 variant G3N, E6S, K53Q, D54W, S55R, N91T, R104T (ligand)
chain: B1 chain with P3N, H6S, K53Q, A54W, P55R, K56Q, S63T, M91T, R104T
B14: IL-18 variant G3P, E6V, K53A, D54W, S55P, T63S, N91L, R104K, Q154R (ligand)
chain: B1 chain with H6V, K53A, A54W, K56Q, M91L, R104K, Q154R

Target: T1, IL-18 receptors on HEK-Blue IL-18 …
Assay: cell-based or functional assay

Row | Binder | Activity, No BP, DF-100000 | Activity, No BP, DF-500000 | Activity, No BP, DF-2500000
1 | B1 | 1.2 | 0.63 | 0.17
2 | B2 | 0.58 | 0.18 | 0.12
3 | B3 | 1.95 | 1.93 | 1.85
4 | B4 | 0.35 | 0.13 | 0.07
5 | B5 | 0.49 | 0.16 | 0.08
6 | B6 | 0.64 | 0.21 | 0.08
7 | B7 | 0.74 | 0.25 | 0.09
8 | B8 | 0.68 | 0.23 | 0.1
9 | B9 | 0.7 | 0.24 | 0.15
10 | B10 | 0.39 | 0.12 | 0.08
11 | B11 | 1.31 | 0.67 | 0.22
12 | B12 | 1.18 | 0.52 | 0.19
13 | B13 | 0.46 | 0.14 | 0.14
14 | B14 | 0.56 | 0.18 | 0.08

Target: T2, IL-18 binding protein (IL-18BP)
Assay: cell-based or functional assay

Row | Binder | Activity, +100 nM BP, DF-1000002 | Activity, +100 nM BP, DF-5000003 | Activity, +100 nM BP, DF-25000004 | Ratio (-BP/+BP), DF-1000005 | Ratio (-BP/+BP), DF-5000006 | Ratio (-BP/+BP), DF-25000007
15 | B1 | 1.24 | 0.61 | 0.19 | 0.97 | 1.03 | 0.9
16 | B2 | 0.49 | 0.18 | 0.11 | 1.19 | 1.03 | 1.14
17 | B3 | 1.88 | 1.52 | 0.84 | 1.04 | 1.27 | 2.2
18 | B4 | 0.33 | 0.12 | 0.08 | 1.09 | 1.06 | 0.97
19 | B5 | 0.51 | 0.2 | 0.1 | 0.95 | 0.81 | 0.88
20 | B6 | 0.65 | 0.2 | 0.09 | 0.98 | 1.07 | 0.91
21 | B7 | 0.89 | 0.26 | 0.12 | 0.83 | 0.96 | 0.78
22 | B8 | 0.62 | 0.23 | 0.12 | 1.09 | 0.99 | 0.84
23 | B9 | 0.78 | 0.26 | 0.12 | 0.9 | 0.95 | 1.22
24 | B10 | 0.32 | 0.11 | 0.08 | 1.25 | 1.09 | 1.01
25 | B11 | 1.34 | 0.73 | 0.28 | 0.98 | 0.92 | 0.79
26 | B12 | 1.21 | 0.57 | 0.18 | 0.98 | 0.9 | 1.04
27 | B13 | 0.46 | 0.15 | 0.14 | 0.99 | 0.93 | 1.02
28 | B14 | 0.6 | 0.19 | 0.09 | 0.94 | 0.96 | 0.91
